{"source": "paper PMC9352680", "about": "“A comprehensive thermodynamic model for RNA binding by the Saccharomyces cerevisiae Pumilio protein PUF4”", "binders": {"B1": {"name": "Ia_S2_P5E.1_K5.1_C5.1_H5.1_A5.1_[T5A]_F5.1_T5.1 (ssRNA)", "RNA": "UUUGAUUAAUAUGAUAUCGUUCUUUCUUGUAAUAUUAUUCUUUCUCGAUAUCAUAUUAAUCUUU"}, "B2": {"name": "Ia_S2_P5E.1_K5.1_C5.1_H5.1_A5.1_[A7T]_F5.1_T5.1 (ssRNA)", "RNA": "B1 RNA with A32U, A34U"}, "B3": {"name": "Ia_S2_P5E.1_K5.1_C5.1_H5.1_A5.1_[T6A]_F5.1_T5.1 (ssRNA)", "RNA": "B1 RNA with A32U, U33A"}, "B4": {"name": "Ia_S2_P5E.1_K5.1_C5.1_H5.1_A5.1_[A7C]_F5.1_T5.1 (ssRNA)", "RNA": "B1 RNA with A32U, A34C"}, "B5": {"name": "Ia_S2_P5E.1_K5.1_C5.1_H5.1_A5.1_[A7G]_F5.1_T5.1 (ssRNA)", "RNA": "B1 RNA with A32U, A34G"}, "B6": {"name": "Ia_S2_P5E.1_K5.1_C5.1_H5.1_A5.1_[T6C]_F5.1_T5.1 (ssRNA)", "RNA": "B1 RNA with A32U, U33C"}, "B7": {"name": "Ib_S4_P3E.1_K3.1_C3.1_H3.1_A3.1_F3.1_[T7G]_[A8C]_T3.1 (ssRNA)", "RNA": "UUUGACAACUGAUCGUUCUUUCUUGUAUAGCUUCUUUCUCGAUCAGUUGUCUUU"}}, "note": "Changes are numbered by the printed parent chain. Numbers in names are those of the source."}
{"molecular_target": "T1, PUF4 RNA-binding domain (Saccharomyces cerevisiae, UniProt P25339 537-888)", "T1 sequence": "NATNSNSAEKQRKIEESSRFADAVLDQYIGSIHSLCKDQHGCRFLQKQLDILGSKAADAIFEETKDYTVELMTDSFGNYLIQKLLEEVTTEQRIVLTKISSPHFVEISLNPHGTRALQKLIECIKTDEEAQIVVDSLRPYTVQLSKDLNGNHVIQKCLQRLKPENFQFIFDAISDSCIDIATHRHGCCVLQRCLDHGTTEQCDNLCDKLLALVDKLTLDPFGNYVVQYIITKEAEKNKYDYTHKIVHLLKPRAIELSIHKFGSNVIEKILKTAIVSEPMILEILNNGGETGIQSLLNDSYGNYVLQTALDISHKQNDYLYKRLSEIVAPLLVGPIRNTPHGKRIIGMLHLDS", "test": "Mg; RNA-MaP; 20 mM Na-HEPES pH 7.4, 30 mM KOAc, 0.75 mM MgCl2, 0.1% Tween-20, 5% glycerol, 0.1 mg/mL BSA, 2 mM DTT; 25 C; 0.0125-409.6 nM protein", "details": "tags: N-His6-TEV cleaved; C-SNAP kept, Cy3B-labelled; label: tethered on chip by stalled RNA polymerase", "units": {"Kd": "nM"}}
{"binder": "B1", "Kd": 4.27}
{"binder": "B2", "Kd": 2.11}
{"binder": "B3", "Kd": 2.33}
{"binder": "B4", "Kd": 3.06}
{"binder": "B5", "Kd": 11.6}
{"binder": "B6", "Kd": 1.73}
{"binder": "ACAAACUCUAUAGUAACAAAC (ssRNA)", "note": "[Ib_S3_P4E.1_K4.1_C4.1_H4.1_[G2C]_A4.1_[T7G]_F4.1_T4.1]", "Kd": "> 2300"}
{"binder": "ACAAACUUUAUUAUUUACAAAC (ssRNA)", "note": "[Ib_S3_P5E.1_K5.1_C5.1_H5.1_[G2T]_A5.1_F5.1_[A10T]_T5.1]", "Kd": "> 2300"}
{"binder": "ACAAACUGUCUUCUUAACAAAC (ssRNA)", "note": "[Ib_S3_P5E.1_K5.1_C5.1_H5.1_[A4C]_A5.1_[A7C]_F5.1_T5.1]", "Kd": 2190}
{"binder": "ACAAACUAUAGUAUUAACAAAC (ssRNA)", "note": "[Ib_S3_P5E.1_K5.1_C5.1_H5.1_[G2A]_A5.1_[T5G]_F5.1_T5.1]", "Kd": "> 2300"}
{"binder": "ACAAACUCUAUAAUUAACAAAC (ssRNA)", "note": "[Ib_S3_P5E.1_K5.1_C5.1_H5.1_[G2C]_A5.1_[T6A]_F5.1_T5.1]", "Kd": "> 2300"}
{"binder": "ACAAACAGUAUAAUUAACAAAC (ssRNA)", "note": "[Ib_S3_P5E.1_K5.1_C5.1_H5.1_[T1A]_A5.1_[T6A]_F5.1_T5.1]", "Kd": 1740}
{"binder": "ACAAACUAUUUUAUUAACAAAC (ssRNA)", "note": "[Ib_S3_P5E.1_K5.1_C5.1_H5.1_[G2A]_[A4T]_A5.1_F5.1_T5.1]", "Kd": "> 2300"}
{"binder": "ACAAACAUUAUAUUAACAAAC (ssRNA)", "note": "[Ib_S3_P4E.1_K4.1_C4.1_H4.1_[T1A]_[G2T]_A4.1_F4.1_T4.1]", "Kd": "> 2300"}
{"binder": "ACAAACUGGAUUAUGAACAAAC (ssRNA)", "note": "[Ib_S3_P5E.1_K5.1_C5.1_H5.1_[T3G]_A5.1_F5.1_[T9G]_T5.1]", "Kd": "> 2300"}
{"binder": "ACAAACUGGACUAUUAACAAAC (ssRNA)", "note": "[Ib_S3_P5E.1_K5.1_C5.1_H5.1_[T3G]_A5.1_[T5C]_F5.1_T5.1]", "Kd": "> 2300"}
{"binder": "ACAAACAGUCUUAUUAACAAAC (ssRNA)", "note": "[Ib_S3_P5E.1_K5.1_C5.1_H5.1_[T1A]_[A4C]_A5.1_F5.1_T5.1]", "Kd": "> 2300"}
{"binder": "ACAAACUGGAUUAAUAACAAAC (ssRNA)", "note": "[Ib_S3_P5E.1_K5.1_C5.1_H5.1_[T3G]_A5.1_F5.1_[T8A]_T5.1]", "Kd": "> 2300"}
{"binder": "ACAAACCGUAUAAUUAACAAAC (ssRNA)", "note": "[Ib_S3_P5E.1_K5.1_C5.1_H5.1_[T1C]_A5.1_[T6A]_F5.1_T5.1]", "Kd": 1180}
{"binder": "ACAAACUGCAUUUUAACAAAC (ssRNA)", "note": "[Ib_S3_P4E.1_K4.1_C4.1_H4.1_[T3C]_A4.1_[A6T]_F4.1_T4.1]", "Kd": 1910}
{"binder": "ACAAACUAUAUUAAUAACAAAC (ssRNA)", "note": "[Ib_S3_P5E.1_K5.1_C5.1_H5.1_[G2A]_A5.1_F5.1_[T8A]_T5.1]", "Kd": 1580}
{"binder": "ACAAACUAAAUUAUUAACAAAC (ssRNA)", "note": "[Ib_S3_P5E.1_K5.1_C5.1_H5.1_[G2A]_[T3A]_A5.1_F5.1_T5.1]", "Kd": "> 2300"}
{"binder": "ACAAACUAUAUAAUUAACAAAC (ssRNA)", "note": "[Ib_S3_P5E.1_K5.1_C5.1_H5.1_[G2A]_A5.1_[T6A]_F5.1_T5.1]", "Kd": 1050}
{"binder": "ACAAACUGAAUACUAACAAAC (ssRNA)", "note": "[Ib_S3_P4E.1_K4.1_C4.1_H4.1_[T3A]_A4.1_[T7C]_F4.1_T4.1]", "Kd": 1130}
{"binder": "ACAAACCCUAUUAUUAACAAAC (ssRNA)", "note": "[Ib_S3_P5E.1_K5.1_C5.1_H5.1_[T1C]_[G2C]_A5.1_F5.1_T5.1]", "Kd": "> 2300"}
{"binder": "ACAAACUGACUUAUUAACAAAC (ssRNA)", "note": "[Ib_S3_P5E.1_K5.1_C5.1_H5.1_[T3A]_[A4C]_A5.1_F5.1_T5.1]", "Kd": "> 2300"}
{"binder": "ACAAACUGAACUAUUAACAAAC (ssRNA)", "note": "[Ib_S3_P5E.1_K5.1_C5.1_H5.1_[T3A]_A5.1_[T5C]_F5.1_T5.1]", "Kd": "> 2300"}
{"binder": "ACAAACAGUAGAUUAACAAAC (ssRNA)", "note": "[Ib_S3_P4E.1_K4.1_C4.1_H4.1_[T1A]_A4.1_[T5G]_F4.1_T4.1]", "Kd": 828}
{"binder": "ACAAACGGUAUCAUUAACAAAC (ssRNA)", "note": "[Ib_S3_P5E.1_K5.1_C5.1_H5.1_[T1G]_A5.1_[T6C]_F5.1_T5.1]", "Kd": 1450}
{"binder": "B7", "Kd": 85.3}
